From PMC11413682 come the findings set out here.

What is called Kd is the free concentration of one partner at which half of the binding sites on the other are occupied at equilibrium, for simple one-to-one binding.

First the molecules themselves.
B1: SARS-CoV-2 ORF10 N5 peptide [SARS-CoV-2] / CUL2^ZYG11B (residues 490–728) [human] (parent)
chain 1: GYINV
chain 2: ELFIVRQLLQIVKQKTNQNSVDTTLKFTLSALWNLTDESPTTCRHFIENQGLELFMRVLESFPTESSIQQKVLGLLNNIAEVQELHSELMWKDFIDHISSLLHSVEVEVSYFAAGIIAHLISRGEQAWTLSRSQRNSLLDDLHSAILKWPTPECEMVAYRSFNPFFPLLGCFTTPGVQLWAVWAMQHVCSKNPSRYCSMLIEEGGLQHLYNIKDHEHTDPHVQQIAVAILDSLEKHIVR

This assay covers variants of B1. Put plainly: ITC. The conditions noted are these: with CUL2^ZYG11B (residues 490–728) [human].
On to chain 1 G1S, for which the dissociation constant Kd came to 13.2 µM.
